Data taken from doi:10.1101/2025.06.24.660003.

Molecular target: human plasma glycoproteins
Test: far-Western, overlay or dot blot; human or rat plasma diluted 1:10, boiled with LDS sample buffer and 50 mM DTT, separated on 3-8% polyacrylamide gradient gels, transferred to BioTraceNT; GST-SLBR 5 nM in DPBS with 1x Blocking Reagent, 90 min, room temperature; detected with anti-GST

## GST-tagged Siglec-like binding region of Hsa, V370F mutant (from UniProt A8AWU7 220-453) (domain or fragment)
  fold decrease in total binding against wild type: 3 fold
